We go through one substance from US20110008841A1.

The target in assay [1] is huIL-17RA-FLAG-polyHis (human) (UniProt Q96F46). The experiment in a line: Luminex binning; huIgG on bead 72 as capture, 2nd mAb N [D00012 FIG. 16B].
Assay [2] shares this target. Briefly: Luminex binning; huIgG on bead 72 as capture, 2nd mAb C [D00012 FIG. 16B].
Assay [3] shares this target. Briefly: Luminex binning; huIgG on bead 72 as capture, 2nd mAb M [D00012 FIG. 16B].
Assay [4] shares this target. Briefly: Luminex binning; huIgG on bead 72 as capture, 2nd mAb J [D00012 FIG. 16B].
Assay [5] has the same target. Briefly: Luminex binning; huIgG on bead 72 as capture, 2nd mAb A [D00012 FIG. 16B].
Assay [6] has the same target. The experiment in a line: Luminex binning; huIgG on bead 72 as capture, 2nd mAb R [D00012 FIG. 16B].
Assay [7] shares this target. The experiment in a line: Luminex binning; huIgG on bead 72 as capture, 2nd mAb B [D00012 FIG. 16B].
For assay [8] the target is unchanged. Briefly: Luminex binning; huIgG on bead 72 as capture, 2nd mAb Q [D00012 FIG. 16B].
For assay [9] the target is unchanged. The experiment in a line: Luminex binning; huIgG on bead 72 as capture, 2nd mAb K [D00012 FIG. 16B].
Assay [10] shares this target. Briefly: Luminex binning; huIgG on bead 72 as capture, 2nd mAb L [D00012 FIG. 16B].
Assay [11] has the same target. The experiment in a line: Luminex binning; huIgG on bead 72 as capture, 2nd mAb E [D00012 FIG. 16B].
The target is the same in assay [12]. The experiment in a line: Luminex binning; huIgG on bead 72 as capture, 2nd mAb O [D00012 FIG. 16B].
Assay [13] has the same target. The experiment in a line: Luminex binning; huIgG on bead 72 as capture, 2nd mAb D [D00012 FIG. 16B].
Assay [14] shares this target. Briefly: Luminex binning; huIgG on bead 72 as capture, 2nd mAb F [D00012 FIG. 16B].
For assay [15] the target is unchanged. The experiment in a line: Luminex binning; huIgG on bead 72 as capture, 2nd mAb I [D00012 FIG. 16B].

For the substance huIgG (antibody), the normalized MFI in [1] came out at 56; in assay [2] it was 54; in assay [3] it was 32; in assay [4], 35; in assay [5] it was 84; in [6], 50. Besides, the normalized MFI in assay [7] came to 37; in assay [8] it was 28; in assay [9], 100; in [10], 34; in assay [11] it was 26; in assay [12], 95. Further, the normalized MFI in assay [13] came to 123; in assay [14], 140; in assay [15] it was 22.
